Assays:
[1] = molecular target: NrCAM, rat (pcDNA3 plasmid) (rat) (UniProt P97686)
[2] = molecular target: NrCAM, rat, tyrosine-phosphorylated in the FIGQY motif by co-expressed EphB2 (rat) (UniProt P97686)

- percent of cells with ankyrinG-EGFP recruited to the plasma membrane, HEK293 cells co-expressing ankyrin/NrCAM/EphB2 KD (kinase dead mutant K662R) [1]: 84%
- percent of cells with ankyrinG-EGFP recruited to the plasma membrane, HEK293 cells co-expressing ankyrin/NrCAM/EphB2 [2]: 7%
Substance: ankyrinG-EGFP fusion protein (from UniProt O70511 1-2622) (natural protein)

Source: paper PMC3759449
